Reference: patent US11260115B1, “Peptides and combination of peptides for use in immunotherapy against CLL and other cancers” (immatics biotechnologies GmbH, priority 2015, dated 2022)

Target: HLA-A*02:01 (Homo sapiens, UniProt P04439, D140Y/D185E/D98H/E176V/E277Q/G131W/G231S/I119V/I121R/I166T/I218V/L300P/L318F/N151K/N90K/P208A/P217A/Q86G/Q94H/R138H/R169H/T345S)
Test: MHC binding assay (UV-ligand exchange, β2m ELISA, peptide exchange yield)
Details: binding to HLA-A*02:01
Excerpt: Candidate peptides for T cell based therapies according to the present invention were further tested for their MHC binding capacity (affinity). The individual peptide-MHC complexes were produced by UV-ligand exchange, where a UV-sensitive peptide is cleaved upon UV-irradiation, and exchanged with the peptide of interest as analyzed. Only peptide candidates that can effectively bind and stabilize the peptide-receptive MHC molecules prevent dissociation of the MHC complexes. To determine the yield of the exchange reaction, an ELISA was performed based on the detection of the light chain (β2m) of stabilized MHC complexes. The assay was performed as generally described in Rodenko et al. (Rodenko et al., 2006).
96 well MAXISorp plates (NUNC) were coated over night with 2 ug/ml streptavidin in PBS at room temperature, washed 4× and blocked for 1 h at 37° C. in 2% BSA containing blocking buffer. Refolded HLA-A*02:01/MLA-001 monomers served as standards, covering the range of 15-500 ng/ml. Peptide-MHC monomers of the UV-exchange reaction were diluted 100 fold in blocking buffer. Samples were incubated for 1 h at 37° C., washed four times, incubated with 2 ug/ml HRP conjugated anti-β2m for 1 h at 37° C., washed again and detected with TMB solution that is stopped with […]. Absorption was measured at 450 nm. Candidate peptides that show a high exchange yield (preferably higher than 50%, most preferred higher than 75%) are generally preferred for a generation and production of antibodies or fragments thereof, and/or T cell receptors or fragments thereof, as they show sufficient avidity to the MHC molecules and prevent dissociation of the MHC complexes.
Table 11: MHC class I binding scores. Binding of HLA-class I restricted peptides to HLA-A*02:01 was ranged by peptide exchange yield: ≥10%=+; ≥20%=++; ≥50=+++; ≥75%=++++

70 (FVPDTPVGV; listed as Homo sapiens) [compound 70]
Peptide Exchange (MHC class I binding score, peptide exchange yield): “+++” (>50 = +++)

71 (GLKHDIARV; listed as Homo sapiens) [compound 71]
Peptide Exchange (MHC class I binding score, peptide exchange yield): “+++” (>50 = +++)

72 (GLLDAGKMYV; listed as Homo sapiens) [compound 72]
Peptide Exchange (MHC class I binding score, peptide exchange yield): “+++” (>50 = +++)

73 (GLLEVISALQL; listed as Homo sapiens) [compound 73]
Peptide Exchange (MHC class I binding score, peptide exchange yield): “+++” (>50 = +++)

74 (GLLRASFLL; listed as Homo sapiens) [compound 74]
Peptide Exchange (MHC class I binding score, peptide exchange yield): “++” (>20% = ++)

75 (GLSIFAQDLRL; listed as Homo sapiens) [compound 75]
Peptide Exchange (MHC class I binding score, peptide exchange yield): “++” (>20% = ++)

76 (GLLRIIPYL; listed as Homo sapiens) [compound 76]
Peptide Exchange (MHC class I binding score, peptide exchange yield): “+++” (>50 = +++)

78 (GLPSFLTEV; listed as Homo sapiens) [compound 78]
Peptide Exchange (MHC class I binding score, peptide exchange yield): “+++” (>50 = +++)

79 (GLQAKIQEA; listed as Homo sapiens) [compound 79]
Peptide Exchange (MHC class I binding score, peptide exchange yield): “+++” (>50 = +++)

80 (VLIEDELEEL; listed as Homo sapiens) [compound 80]
Peptide Exchange (MHC class I binding score, peptide exchange yield): “++” (>20% = ++)

82 (GLQSGVDIGV; listed as Homo sapiens) [compound 82]
Peptide Exchange (MHC class I binding score, peptide exchange yield): “+++” (>50 = +++)

83 (GQGEVLVYV; listed as Homo sapiens) [compound 83]
Peptide Exchange (MHC class I binding score, peptide exchange yield): “+++” (>50 = +++)

84 (GVMDVNTAL; listed as Homo sapiens) [compound 84]
Peptide Exchange (MHC class I binding score, peptide exchange yield): “++” (>20% = ++)

85 (HLMLHTAAL; listed as Homo sapiens) [compound 85]
Peptide Exchange (MHC class I binding score, peptide exchange yield): “++++” (>75% = ++++)

87 (HQIEAVDGEEL; listed as Homo sapiens) [compound 87]
Peptide Exchange (MHC class I binding score, peptide exchange yield): “++” (>20% = ++)

88 (ILDEIGADVQA; listed as Homo sapiens) [compound 88]
Peptide Exchange (MHC class I binding score, peptide exchange yield): “+++” (>50 = +++)

89 (ILDFGTFQL; listed as Homo sapiens) [compound 89]
Peptide Exchange (MHC class I binding score, peptide exchange yield): “+++” (>50 = +++)

90 (VIADLGLIRV; listed as Homo sapiens) [compound 90]
Peptide Exchange (MHC class I binding score, peptide exchange yield): “+++” (>50 = +++)

91 (ILDLNTYNV; listed as Homo sapiens) [compound 91]
Peptide Exchange (MHC class I binding score, peptide exchange yield): “+++” (>50 = +++)

92 (ILEPLNPLL; listed as Homo sapiens) [compound 92]
Peptide Exchange (MHC class I binding score, peptide exchange yield): “+++” (>50 = +++)

93 (ILFNTQINI; listed as Homo sapiens) [compound 93]
Peptide Exchange (MHC class I binding score, peptide exchange yield): “+++” (>50 = +++)

94 (ILFPLRFTL; listed as Homo sapiens) [compound 94]
Peptide Exchange (MHC class I binding score, peptide exchange yield): “+++” (>50 = +++)

95 (ILGYMAHEHKV; listed as Homo sapiens) [compound 95]
Peptide Exchange (MHC class I binding score, peptide exchange yield): “++” (>20% = ++)

97 (LLFATQITL; listed as Homo sapiens) [compound 97]
Peptide Exchange (MHC class I binding score, peptide exchange yield): “++” (>20% = ++)

98 (SLIKYFLFV; listed as Homo sapiens) [compound 98]
Peptide Exchange (MHC class I binding score, peptide exchange yield): “+” (>10% = +)

99 (ILIFHSVAL; listed as Homo sapiens) [compound 99]
Peptide Exchange (MHC class I binding score, peptide exchange yield): “+++” (>50 = +++)

100 (ILNNEVFAI; listed as Homo sapiens) [compound 100]
Peptide Exchange (MHC class I binding score, peptide exchange yield): “+++” (>50 = +++)

103 (KLGGTPAPA; listed as Homo sapiens) [compound 103]
Peptide Exchange (MHC class I binding score, peptide exchange yield): “++” (>20% = ++)

104 (KLILLDTPLFL; listed as Homo sapiens) [compound 104]
Peptide Exchange (MHC class I binding score, peptide exchange yield): “+++” (>50 = +++)

105 (KLMNDIADI; listed as Homo sapiens) [compound 105]
Peptide Exchange (MHC class I binding score, peptide exchange yield): “++” (>20% = ++)

106 (FMASHLDYL; listed as Homo sapiens) [compound 106]
Peptide Exchange (MHC class I binding score, peptide exchange yield): “+++” (>50 = +++)

107 (ILYNLYDLL; listed as Homo sapiens) [compound 107]
Peptide Exchange (MHC class I binding score, peptide exchange yield): “+++” (>50 = +++)

108 (VIYTLIHYI; listed as Homo sapiens) [compound 108]
Peptide Exchange (MHC class I binding score, peptide exchange yield): “+++” (>50 = +++)

109 (KLWEGLTELV; listed as Homo sapiens) [compound 109]
Peptide Exchange (MHC class I binding score, peptide exchange yield): “+++” (>50 = +++)

110 (LLFDHLEPMEL; listed as Homo sapiens) [compound 110]
Peptide Exchange (MHC class I binding score, peptide exchange yield): “+++” (>50 = +++)

111 (KLWNVAAPLYL; listed as Homo sapiens) [compound 111]
Peptide Exchange (MHC class I binding score, peptide exchange yield): “+++” (>50 = +++)

113 (KVPAEEVLVAV; listed as Homo sapiens) [compound 113]
Peptide Exchange (MHC class I binding score, peptide exchange yield): “+++” (>50 = +++)

115 (LLFDKLYLL; listed as Homo sapiens) [compound 115]
Peptide Exchange (MHC class I binding score, peptide exchange yield): “+++” (>50 = +++)

116 (LLIGATMQV; listed as Homo sapiens) [compound 116]
Peptide Exchange (MHC class I binding score, peptide exchange yield): “+++” (>50 = +++)

117 (LLILENILL; listed as Homo sapiens) [compound 117]
Peptide Exchange (MHC class I binding score, peptide exchange yield): “+++” (>50 = +++)

118 (RLLILENILL; listed as Homo sapiens) [compound 118]
Peptide Exchange (MHC class I binding score, peptide exchange yield): “+++” (>50 = +++)

119 (VLPAEFFEV; listed as Homo sapiens) [compound 119]
Peptide Exchange (MHC class I binding score, peptide exchange yield): “+++” (>50 = +++)

120 (AIDAALTSV; listed as Homo sapiens) [compound 120]
Peptide Exchange (MHC class I binding score, peptide exchange yield): “+++” (>50 = +++)

121 (RLYEITIEV; listed as Homo sapiens) [compound 121]
Peptide Exchange (MHC class I binding score, peptide exchange yield): “++++” (>75% = ++++)

122 (LLIPVVPGV; listed as Homo sapiens) [compound 122]
Peptide Exchange (MHC class I binding score, peptide exchange yield): “+++” (>50 = +++)

123 (LLLAEAELLTL; listed as Homo sapiens) [compound 123]
Peptide Exchange (MHC class I binding score, peptide exchange yield): “++” (>20% = ++)

124 (LLLEETEKQAV; listed as Homo sapiens) [compound 124]
Peptide Exchange (MHC class I binding score, peptide exchange yield): “+++” (>50 = +++)

125 (LLLEIGEVGKLFV; listed as Homo sapiens) [compound 125]
Peptide Exchange (MHC class I binding score, peptide exchange yield): “+++” (>50 = +++)

126 (LLPEGGITAI; listed as Homo sapiens) [compound 126]
Peptide Exchange (MHC class I binding score, peptide exchange yield): “+++” (>50 = +++)

127 (LLPTAPTTV; listed as Homo sapiens) [compound 127]
Peptide Exchange (MHC class I binding score, peptide exchange yield): “+++” (>50 = +++)

128 (LLSEEEYHL; listed as Homo sapiens) [compound 128]
Peptide Exchange (MHC class I binding score, peptide exchange yield): “+++” (>50 = +++)
